Measurements: patent publication US20170009278A1 (NAVINCI DIAGNOSTICS, published 2017)

Target: T1, β catenin (UniProt P35222 2-781)
T1 construct: Detected with antibody Sc7199 (Santa-Cruz)
T1 sequence (looked up): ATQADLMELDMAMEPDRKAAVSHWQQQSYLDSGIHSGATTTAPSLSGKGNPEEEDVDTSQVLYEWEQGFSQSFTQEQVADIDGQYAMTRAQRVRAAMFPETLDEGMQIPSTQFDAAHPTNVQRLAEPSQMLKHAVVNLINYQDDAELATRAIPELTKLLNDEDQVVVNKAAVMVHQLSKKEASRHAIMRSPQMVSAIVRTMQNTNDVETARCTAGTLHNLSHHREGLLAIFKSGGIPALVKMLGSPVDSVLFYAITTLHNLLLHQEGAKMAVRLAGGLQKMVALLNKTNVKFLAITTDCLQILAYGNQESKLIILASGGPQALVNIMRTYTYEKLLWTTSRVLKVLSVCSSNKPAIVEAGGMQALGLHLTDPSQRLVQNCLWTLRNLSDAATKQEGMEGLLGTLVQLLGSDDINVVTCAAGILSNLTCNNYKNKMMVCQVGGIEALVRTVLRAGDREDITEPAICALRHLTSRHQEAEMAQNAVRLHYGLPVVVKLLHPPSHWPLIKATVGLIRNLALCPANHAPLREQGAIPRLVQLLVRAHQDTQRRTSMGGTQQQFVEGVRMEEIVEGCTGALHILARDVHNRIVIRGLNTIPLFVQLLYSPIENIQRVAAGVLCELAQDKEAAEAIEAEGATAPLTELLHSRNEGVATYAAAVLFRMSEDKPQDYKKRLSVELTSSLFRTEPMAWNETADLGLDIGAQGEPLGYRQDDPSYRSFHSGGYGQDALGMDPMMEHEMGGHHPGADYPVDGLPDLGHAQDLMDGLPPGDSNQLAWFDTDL
Test: in situ prox-HCR and in situ PLA on DLD1 cells and colon tissue
Description: For in situ PLA experiments the DuoLink kit (Olink Bioscience) was used according to manufacturer recommendations. Briefly DLD1 cells were rehydrated and permeabilized as described for prox-HCR. […] Cells were washed with DuoLink Wash buffer A two time for 5 min and incubated with proximity probes (PLUS and MINUS, Olink Bioscience) in antibody diluent (Olink Bioscience) for 1 h at 37° C. After a new round of washing steps ligation mix was applied to the cells and incubated for 30 min at 37° C. Additional washing was followed by RCA and fluorescent detection of the rolling circle products. Cells were counterstained with Hoechst and mounted as described above.
Fresh frozen healthy colon tissue was fixed using 3.7% formaldehyde solution at RT for 15 min. Slides were washed with PBS twice and then blocked using Duolink blocking reagent for 60 min at 37° C. […] The next day the slides were washed with PBS 3×2 min and blocked again for 30 min. The slides were incubated with proximity-probes directed against mouse and rabbit IgG for 1 h at 37° C. in HCR buffer. After two more washes with HCR buffer the slides were incubated with activator oligonucleotides for 30 min at 37° C. Slides were washed again twice with HCR buffer and slides were incubated with 20 nM HCR hairpins in HCR buffer for 1 h at 37° C. […]

B1: E-cadherin (receptor, UniProt P12830 155-882, looked up)
chain: DWVIPPISCPENEKGPFPKNLVQIKSNKDKEGKVFYSITGQGADTPPVGVFIIERETGWLKVTEPLDRERIATYTLFSHAVSSNGNAVEDPMEILITVTDQNDNKPEFTQEVFKGSVMEGALPGTSVMEVTATDADDDVNTYNAAIAYTILSQDPELPDKNMFTINRNTGVISVVTTGLDRESFPTYTLVVQAADLQGEGLSTTATAVITVTDTNDNPPIFNPTTYKGQVPENEANVVITTLKVTDADAPNTPAWEAVYTILNDDGGQFVVTTNPVNNDGILKTAKGLDFEAKQQYILHVAVTNVVPFEVSLTTSTATVTVDVLDVNEAPIFVPPEKRVEVSEDFGVGQEITSYTAQEPDTFMEQKITYRIWRDTANWLEINPDTGAISTRAELDREDFEHVKNSTYTALIIATDNGSPVATGTGTLLLILSDVNDNAPIPEPRTIFFCERNPKPQVINIIDADLPPNTSPFTAELTHGASANWTIQYNDPTQESIILKPKMALEVGDYKINLKLMDNQNKDQVTTLEVSVCDCEGAAGVCRKAQPVEAGLQIPAILGILGGILALLILILLLLLFLRRRAVVKEPLLPPEDDTRDNVYYYDEEGGGEEDQDFDLSQLHRGLDARPEVTRNDVAPTLMSVPRYLPRPANPDEIGNFIDENLKAADTDPTAPPYDSLLVFDYEGSGSEAASLSSLNSSESDKDQDYDYLNEWGNRFKKLADMYGGGEDD
notes: whole, on cells; Detected with antibody 610182 (BD Biosciences)
Question: Does B1 bind?
Answer: binds
